Measurements published in paper doi:10.1101/2025.03.12.642038, “Structural, biophysical and biological analysis and characterisation of IRF4 DNA-binding domain mutations associated with multiple myeloma”.

Columns and labels:
Experiment in all cases: SPR steady state; FP: PBS + 0.05% Tween20, 5 nM DNA, 1 h, room temperature; SPR: Biacore S200, SA chip, protein 0.1-4500 nM, running buffer not given in material; errors are SD
Details in all cases: protein: recombinant; tags: N-terminal His8-linker-His8-TEV, cleaved; label: 3' biotin; hairpin, TTTT loop
[1] = target: T1, IRF4 DBD T95K (Homo sapiens, UniProt Q15306 20-132, T95K)
T1 sequence: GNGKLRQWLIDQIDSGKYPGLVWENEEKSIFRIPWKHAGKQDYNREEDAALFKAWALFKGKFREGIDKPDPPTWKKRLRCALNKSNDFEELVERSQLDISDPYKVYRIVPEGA

[2] = target: T2, IRF4 DBD D106Y (Homo sapiens, UniProt Q15306 20-132, D106Y)
T2 sequence: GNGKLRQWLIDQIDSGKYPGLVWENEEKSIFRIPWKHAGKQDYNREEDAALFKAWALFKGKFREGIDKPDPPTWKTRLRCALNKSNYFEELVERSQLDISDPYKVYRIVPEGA

[3] = target: T3, IRF4 DBD T95R (Homo sapiens, UniProt Q15306 20-132, T95R)
T3 sequence: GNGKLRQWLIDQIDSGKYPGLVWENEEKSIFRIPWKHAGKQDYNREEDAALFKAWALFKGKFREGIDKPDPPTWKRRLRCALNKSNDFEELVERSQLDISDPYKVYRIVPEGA

[4] = target: T4, IRF4 DBD K59R (Homo sapiens, UniProt Q15306 20-132, K59R)
T4 sequence: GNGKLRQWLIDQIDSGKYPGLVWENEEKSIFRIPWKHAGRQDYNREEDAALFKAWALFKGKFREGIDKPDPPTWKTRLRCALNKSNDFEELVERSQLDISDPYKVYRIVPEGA

[5] = target: T5, IRF4 DBD L70V (Homo sapiens, UniProt Q15306 20-132, L70V)
T5 sequence: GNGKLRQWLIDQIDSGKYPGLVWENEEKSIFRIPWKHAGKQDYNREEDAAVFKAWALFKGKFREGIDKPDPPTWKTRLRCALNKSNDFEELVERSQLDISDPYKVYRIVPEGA

[6] = target: T6, IRF4 DBD S114R (Homo sapiens, UniProt Q15306 20-132, S114R)
T6 sequence: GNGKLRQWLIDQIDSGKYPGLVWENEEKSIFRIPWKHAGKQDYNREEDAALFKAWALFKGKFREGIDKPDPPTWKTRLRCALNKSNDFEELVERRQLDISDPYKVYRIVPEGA

[7] = target: T7, IRF4 DBD C99A (Homo sapiens, UniProt Q15306 20-132, C99A)
T7 sequence: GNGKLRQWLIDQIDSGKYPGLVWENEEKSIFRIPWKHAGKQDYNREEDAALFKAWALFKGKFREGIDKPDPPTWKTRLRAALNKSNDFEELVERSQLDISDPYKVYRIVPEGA

[8] = target: T8, IRF4 DBD K123R (Homo sapiens, UniProt Q15306 20-132, K123R)
T8 sequence: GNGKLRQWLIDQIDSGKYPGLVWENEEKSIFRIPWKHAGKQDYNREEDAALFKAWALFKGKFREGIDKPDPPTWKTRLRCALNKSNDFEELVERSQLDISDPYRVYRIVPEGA

[9] = target: T9, IRF4 DBD C99R (Homo sapiens, UniProt Q15306 20-132, C99R)
T9 sequence: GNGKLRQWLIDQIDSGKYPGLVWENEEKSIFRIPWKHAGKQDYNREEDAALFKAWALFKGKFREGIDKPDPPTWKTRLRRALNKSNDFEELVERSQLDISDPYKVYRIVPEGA

[10] = target: T10, IRF4 DBD D117H (Homo sapiens, UniProt Q15306 20-132, D117H)
T10 sequence: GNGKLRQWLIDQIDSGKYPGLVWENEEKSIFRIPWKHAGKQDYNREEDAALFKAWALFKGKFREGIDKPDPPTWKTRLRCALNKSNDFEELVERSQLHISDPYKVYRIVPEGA

Question: How did the Kd [1] turn out when CTTGGTTTCACTTCCTGCGTTTTCGCAGGAAGTGAAACCAAG (structured_DNA) [IRE hairpin (biotin)] was run?
Answer: 594 ± 251 nM

Question: What about the Kd [2] of the same binder?
Answer: 178 ± 43 nM

Question: And the Kd [3]?
Answer: 449 ± 49 nM

Question: What about the Kd [4] of the same binder?
Answer: 275 ± 93 nM

Question: What about the Kd [5] of the same binder?
Answer: 167 ± 82 nM

Question: What about the Kd [6] of the same binder?
Answer: 213 ± 94 nM

Question: And the Kd [7]?
Answer: 173 ± 60 nM

Question: What about the Kd [8] of the same binder?
Answer: 491 ± 48 nM

Question: What about the Kd [9] of the same binder?
Answer: 546 ± 174 nM

Question: And the Kd [10]?
Answer: 247 ± 84 nM
